Laboratory results taken from patent US20040170969A1 (published 2004).

B1: DKFZp434D174.1 (GI 7512558) (other, UniProt P57678 1-1058, looked up)
chain: MDLGPLNICEEMTILHGGFLLAEQLFHPKALAELTKSDWERVGRPIVEALREISSAAAHSQPFAWKKKALIIIWAKVLQPHPVTPSDTETRWQEDLFFSVGNMIPTINHTILFELLKSLEASGLFIQLLMALPTTICHAELERFLEHVTVDTSAEDVAFFLDVWWEVMKHKGHPQDPLLSQFSAMAHKYLPALDEFPHPPKRLRSDPDACPTMPLLAMLLRGLTQIQSRILGPGRKCCALANLADMLTVFALTEDDPQEVSATVYLDKLATVISVWNSDTQNPYHQQALAEKVKEAERDVSLTSLAKLPSETIFVGCEFLHHLLREWGEELQAVLRSSQGTSYDSYRLCDSLTSFSQNATLYLNRTSLSKEDRQVVSELAECVRDFLRKTSTVLKNRALEDITASIAMAVIQQKMDRHMEVCYIFASEKKWAFSDEWVACLGSNRALFRQPDLVLRLLETVIDVSTADRAIPESQIRQVIHLILECYADLSLPGKNKVLAGILRSWGRKGLSEKLLAYVEGFQEDLNTTFNQLTQSASEQGLAKAVASVARLVIVHPEVTVKKMCSLAVVNLGTHKFLAQILTAFPALRFVEEQGPNSSATFMVSCLKETVWMKFSTPKEEKQFLELLNCLMSPVKPQGIPVAALLEPDEVLKEFVLPFLRLDVEEVDLSLRIFIQTLEANACREEYWLQTCSPFPLLFSLCQLLDRFSKYWQLPKEKRCLSLDRKDLAIHILELLCEIVSANAETFSPDVWIKSLSWLHRKLEQLDWTVGLRLKSFFEGHFKCEVPATLFEICKLSEDEWTSQAHPGYGAGTGLLAWMECCCVSSGISERMLSLLVVDVGNPEEVRLFSKGFLVALVQVMPWCSPQEWQRLHQLTRRLLEKQLLHVPYSLEYIQFVPLLNLKPFAQELQLSVLFLRTFQFLCSHSCRDWLPLEGWNHVVKLLCGSLTRLLDSVRAIQAAGPWVQGPEQDLTQEALFVYTQVFCHALHIMAMLHPEVCEPLYVLALETLTCYETLSKTNPSVSSLLQRAHEQRFLKSIAEGIGPEERRQTLLQKMSSF
notes: also called gemin4; gemin 4

What was measured:
[1] = target: T1, Flag-epitope-tagged murine Ras-GRF2 (murine, UniProt P70392 1-1189, limits assumed); assay: anti-FLAG co-IP, MS
T1 construct: Bait; expressed stably (Clone 13, Clone 21) or transiently in human 293 cells; also called Flag-GRF2; FLAG-GRF2
T1 sequence (looked up): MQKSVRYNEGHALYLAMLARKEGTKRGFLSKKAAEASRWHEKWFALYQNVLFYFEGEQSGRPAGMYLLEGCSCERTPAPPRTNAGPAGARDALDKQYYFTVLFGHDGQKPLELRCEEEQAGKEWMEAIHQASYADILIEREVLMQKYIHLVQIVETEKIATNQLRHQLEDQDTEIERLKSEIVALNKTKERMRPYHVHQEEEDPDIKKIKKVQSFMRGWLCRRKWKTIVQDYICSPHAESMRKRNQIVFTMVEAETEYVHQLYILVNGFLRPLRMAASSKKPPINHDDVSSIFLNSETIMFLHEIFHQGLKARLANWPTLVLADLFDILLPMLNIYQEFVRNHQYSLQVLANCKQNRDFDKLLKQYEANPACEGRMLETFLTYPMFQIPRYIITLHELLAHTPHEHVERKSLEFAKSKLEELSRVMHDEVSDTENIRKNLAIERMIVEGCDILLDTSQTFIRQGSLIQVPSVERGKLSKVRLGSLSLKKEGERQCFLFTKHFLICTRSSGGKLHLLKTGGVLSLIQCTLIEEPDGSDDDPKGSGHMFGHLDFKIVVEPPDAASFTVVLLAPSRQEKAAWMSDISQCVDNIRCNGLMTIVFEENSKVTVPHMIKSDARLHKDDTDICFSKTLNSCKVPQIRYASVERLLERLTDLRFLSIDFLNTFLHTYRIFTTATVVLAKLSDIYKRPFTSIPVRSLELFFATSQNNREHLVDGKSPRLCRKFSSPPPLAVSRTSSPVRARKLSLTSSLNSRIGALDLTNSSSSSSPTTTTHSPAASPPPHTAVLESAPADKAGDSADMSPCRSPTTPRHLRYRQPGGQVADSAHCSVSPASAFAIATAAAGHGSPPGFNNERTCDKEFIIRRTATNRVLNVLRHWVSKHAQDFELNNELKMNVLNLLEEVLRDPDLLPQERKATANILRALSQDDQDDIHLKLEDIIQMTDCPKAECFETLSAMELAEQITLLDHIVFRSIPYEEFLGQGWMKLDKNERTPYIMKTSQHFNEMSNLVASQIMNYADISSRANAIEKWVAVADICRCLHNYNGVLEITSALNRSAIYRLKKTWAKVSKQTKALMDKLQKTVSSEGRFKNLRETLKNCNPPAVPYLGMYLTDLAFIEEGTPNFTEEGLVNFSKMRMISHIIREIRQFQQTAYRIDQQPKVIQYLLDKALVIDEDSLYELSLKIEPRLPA
Method: (§1) Forty-eight hours (h or hr) later, transfected cells (approximately 1×10⁸ cells) were washed in Tris-Saline (25 mM Tris-HCl pH 7.5, 140 mM NaCl, 8 mM KCl, 700 μM Na₂HPO₄, 5.5 mM glucose) and lysed in Lysis Buffer (KLB, 20 mM Tris-HCl pH7.5, 150 mM NaCl, 1% NP40, 0.5% sodium deoxycholate, and 0.2 mM AEBSF (4-(2-aminoethyl)-benzenesulfonyl fluoride)). Following centrifugation to remove insoluble material, clarified lysates were incubated with Sepharose-4B (10 μl packed sepharose/ml of lysate) for 20 min at 4° C. with gentle mixing (by end-over-end inversion). The supernatant was then incubated with immobilized anti-Flag monoclonal antibodies (M2-agarose, Sigma-Aldrich; 1 μl packed M2-agarose/ml lysate) for 60 min at 4° C. with gentle mixing. The M2-agarose was washed two times with 1 ml KLB lacking AEBSF, and washed one time with 1 ml of 50 mM ammonium bicarbonate. […] After 30 min at 4° C., the M2-agarose beads were removed by centrifugation, the eluted proteins were lyophilized by vacuum centrifugation and resuspended in SDS-PAGE sample buffer.

[2] = target: B1; assay: anti-FLAG co-IP, MS
Method: as §1

Row | Binder | binding result [1] | binding result [2]
1 | B1 | no binding | 
2 | protein 4.1 isoB (GI 182074) (other, UniProt P11171-3 1-641, looked up, also called Erythroid protein 4.1 isoform B) MHCKVSLLDDTVYECVVEKHAKGQDLLKRVCEHLNLLEEDYFGLAIWDNATSKTWLDSAKEIKKQVRGVPWNFTFNVKFYPPDPAQLTEDITRYYLCLQLRQDIVAGRLPCSFATLALLGSYTIQSELGDYDPELHGVDYVSDFKLAPNQTKELEEKVMELHKSYRSMTPAQADLEFLENAKKLSMYGVDLHKAKDLEGVDIILGVCSSGLLVYKDKLRINRFPWPKVLKISYKRSSFFIKIRPGEQEQYESTIGFKLPSYRAAKKLWKVCVEHHTFFRLTSTDTIPKSKFLALGSKFRYSGRTQAQTRQASALIDRPAPHFERTASKRASRSLDGAAAVDSADRSPRPTSAPAITQGQVAEGGVLDASAKKTVVPKAQKETVKAEVKKEDEPPEQAEPEPTEAWKVEKTHIEVTVPTSNGDQTQKKRERLDGENIYIRHSNLMLEDLDKSQEEIKKHHASISELKKNFMESVPEPRPSEWDKRLSTHSPFRTLNINGQIPTGEGPPLVKTQTVTISDNANAVKSEIPTKDVPIVHTETKTITYEAAQTDDNSGDLDPGVLLTAQTITSETPSSTTTTQITKTVKGGISETRIEKRIVITGDADIDHDQVLVQAIKEAKEQHPDMSVTKVVVHQETEIADE | no binding | 
3 | FLAG-Ndr (K118A) mutant fusion protein (enzyme, not shown: small tags and cut ends, also called K118A Ndr) not shown |  | no binding
4 | FLAG-PP2C (enzyme, human, UniProt O75688 1-479, looked up, not shown: small tags and cut ends, also called PP2C bait) MGAFLDKPKTEKHNAHGAGNGLRYGLSSMQGWRVEMEDAHTAVVGIPHGLEDWSFFAVYDGHAGSRVANYCSTHLLEHITTNEDFRAAGKSGSALELSVENVKNGIRTGFLKIDEYMRNFSDLRNGMDRSGSTAVGVMISPKHIYFINCGDSRAVLYRNGQVCFSTQDHKPCNPREKERIQNAGGSVMIQRVNGSLAVSRALGDYDYKCVDGKGPTEQLVSPEPEVYEILRAEEDEFIILACDGIWDVMSNEELCEYVKSRLEVSDDLENVCNWVVDTCLHKGSRDNMSIVLVCFSNAPKVSDEAVKKDSELDKHLESRVEEIMEKSGEEGMPDLAHVMRILSAENIPNLPPGGGLAGKRNVIEAVYSRLNPHRESDGASDEAEESGSQGKLVEALRQMRINHRGNYRQLLEEMLTSYRLAKVEGEESPAEPAATATSSNSDAGNPVTMQESHTESESGLAELDSSNEDAGTKMSGEKI |  | no binding
5 | FLAG-Ndr (cells treated with okadaic acid) (enzyme, not shown: small tags and cut ends, also called Ndr bait; active Ndr) not shown |  | no binding
